Experiments:
Human CDH6-ECD-His [1] = biological target: T1, Human CDH6-ECD-His (human, UniProt P55285 54-615); assay: ELISA, antigen coated at 1 ug/mL, 3-fold antibody dilutions, HRP anti-human antibody, OD450
T1 construct: extracellular domain; Bought protein; also called human CDH6-ECD-His recombinant protein; Human CDH6-EC6D-His; not shown: His tag
T1 sequence (looked up): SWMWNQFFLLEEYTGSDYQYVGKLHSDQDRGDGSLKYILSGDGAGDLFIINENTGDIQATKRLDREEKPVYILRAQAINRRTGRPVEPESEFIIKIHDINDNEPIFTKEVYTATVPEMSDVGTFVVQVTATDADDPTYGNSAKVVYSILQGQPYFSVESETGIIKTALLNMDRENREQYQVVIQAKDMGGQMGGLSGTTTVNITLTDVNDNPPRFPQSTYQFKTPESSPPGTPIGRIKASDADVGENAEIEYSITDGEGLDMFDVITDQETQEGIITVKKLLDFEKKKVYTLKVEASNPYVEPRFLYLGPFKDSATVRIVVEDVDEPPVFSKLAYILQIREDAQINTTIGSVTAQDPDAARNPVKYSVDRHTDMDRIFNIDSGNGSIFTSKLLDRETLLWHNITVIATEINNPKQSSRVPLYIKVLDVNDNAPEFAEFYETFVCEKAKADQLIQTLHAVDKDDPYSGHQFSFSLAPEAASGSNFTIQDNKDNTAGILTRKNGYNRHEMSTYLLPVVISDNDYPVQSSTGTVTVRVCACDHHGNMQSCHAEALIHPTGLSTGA
Protocol: (§1) CDH9 and […] are the most closely related family members to CDH6. Binding of CL069707-H1L1 on human CDH6, CDH9 and CDH10 ECD domains were analyzed by ELISA Binding Assay. Human […], CDH9-ECD-His and CDH10-ECD-His antigens were obtained from Acro Biosystems, Inc. 100 μL of 1 μg/mL of the antigens diluted in PBS were added to 96 well plates and incubated in 4° C. overnight. The plates were washed 3 times with 300 μL of washing buffer. Then 100 μL/well of 1% BSA blocking reagent were added to the plates, and incubated at 37° C. for 1 h then the blocking reagent were discarded. A 3-fold serial dilution of CL069707-H1L1 was added to the plates and then incubated at 37° C. for 1 h. Then the plates were washed 3 times with 300 μL of washing buffer. 100 μL/well of HRP-conjugated anti-Human antibody diluted in 1% BSA were added to the plates and then incubated at 37° C. for 1 h. The plates were washed 3 times with 300 μL of washing buffer. 100 μL/well of TMB substrate were added to the plates and incubated for about 10 min in room temperature. Then the reaction was stopped with 100 μL/well of stopping solution. OD450 was read with a plate reader and the data were processed.
Binding of CL069707-H1L1 on human, cyno monkey, mouse or rat CDH6 antigen were analyzed by ELISA. Human, cyno monkey, mouse and rat CDH6-ECD-His antigens were obtained from Acro Biosystems, Inc. ELISA were done with the same methods as in example 3.1. CL069707-H1L1 binds to human, cyno monkey, mouse and rat CDH6-ECD-His antigens with similar EC50.

Human CDH6-ECD-His [2] = biological target: T1, Human CDH6-ECD-His; assay: ELISA, antigen coated at 1 ug/mL
Protocol: as §1

B1: CL069707-H1L1 (antibody, human IgG1, kappa, V domains shown)
VH: EVQLVESGGGLVQPGGSLRLSCAASGFTFTTYAMNWVRQAPGKGLEWVARIRIKNNNYATYYADSVTDRFTISRDDSKNSLYLQMNSLKTEDTAVYYCVRPDYGNYGLAYWGQGTLVTVSS
VL: DIQLTQSPSSLSASVGDRVTITCSASSSISSHYLHWYQQKPGKSPKLLIYRSFYLASGVPSRFSGSGSGTDFTLTISSLQPEDFATYYCQQDIVPLTFGQGTKLEIKR
notes: Humanized IgG1/kappa, produced in 293 cells; also called humanized CL069707-H1L1
B1 was tested, and the “EC50 (read off the curve)” value (Human CDH6-ECD-His [1]) was roughly 100 pM and the EC50 (Human CDH6-ECD-His [2]) was 100 pM.

Reference: US20250090677A1 (MULTITUDE THERAPEUTICS, published 2025)
